Consider 54 sequences from the supplement of paper PMC11780869.

The subject of this data set is Bacillus subtilis. As to the kind of experiment: cleaved RNA product abundance (RNA/gDNA barcode ratio) relative to median wild-type variant (ratio to wild type); higher = more accumulation of the downstream cleavage product. Put shortly:
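Reporter mRNAs based on truncated aprE or tetM carried barcoded, mutagenized RNase Y cleavage-site windows built from oligos with a 9% error rate and were integrated into the B. subtilis chromosome. Cultures grew in LB at 37°C from OD600 0.0003 to 0.3. Cleaved RNA was gel-selected, reverse transcribed and barcode-sequenced together with genomic DNA barcodes, and UMIs were collapsed. Cleaved product abundance is the per-construct ratio of RNA to gDNA barcodes, scaled to the median of constructs carrying the unmutated site.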

Setting [1] is: experiment (reporter, strain, medium): exp 4a: truncated aprE reporter, strain BJT201 with 2% xylose (RNase J1 expressed), cleavage site: cggR-gapA (positions -7 to +36 mutated).
Where [2] appears, read: experiment (reporter, strain, medium): exp 2b: truncated aprE reporter, strain BJT200, cleavage site: cggR-gapA (positions -7 to +36 mutated).
Setting [3] is: experiment (reporter, strain, medium): exp 6: tetM reporter, strain 168, cleavage site: cggR-gapA (positions -7 to +36 mutated).
Setting [4] is: experiment (reporter, strain, medium): exp 8a: truncated aprE reporter, strain BJT201 with 2% xylose (RNase J1 expressed), cleavage site: glnRA (positions -5 to +31 mutated).

For “ACAGACGAAGGAGCCGCAAAGAAGTGAATAAGGGATGAATAATCCCTCAATATAAATATCTCTCACTTATTTAAA”, the “cleaved RNA product abundance” value under setting [1] was 0.296. “ACAGACGAAGGAGCCGCAAAGAAGTTATTAAGGGATGAATAATCCCTCAATATAAATTTCTCTCACTTATTTAAA”: the “cleaved RNA product abundance” value under setting [2] turned out to be 0.72, the “cleaved RNA product abundance” value under setting [1] was found to be 0.761 and the “cleaved RNA product abundance” value under setting [3] was determined as 0.391. For “ACAGACGAAGGAGCCGCAAAGAAGTTATTAAGGGATTAATAATCCCTCAATATAAATCTCTCTCACTTATTTAAA”, the “cleaved RNA product abundance” value under setting [1] is 0.637. Take “CGACATGTCCCGCTTCTTTCATTAATCCGTTAGCAACTGTTTTTGCTATATACATTTACCTTTTAAGAGGAGGAA”: under setting [4], the “cleaved RNA product abundance” value is 0.946. Take “CGACATGTCCCGCTTCTTTCATTAATCTGTGAGCAACTGTTTTGCTATATACATTTACCTTTTAAGAGGAGGAAT”: the “cleaved RNA product abundance” value under setting [4] turned out to be 0.777.

For the sequence “ACAGACGAAGGAGCCGCAAAGAAGTTATTAACGGATGAATAATCCCTCAATATTAATATCTCTCACTTATTTAAA”, the “cleaved RNA product abundance” value was found to be 0.0877 under setting [2] and 0.0699 under setting [1].

For the sequence “CGACATGTCCCGCTTCTTTCATTAATCCGTTAGTAACTGTTTTCCTATATACATTTACCTTTTAAGAGGAGGAAT”, the “cleaved RNA product abundance” value under setting [4] is 0.44. Turning to “ACAGACGAAGGAGCCGCAAAGAAGTTATTAAGGGATGAATAATACCTCAATATAAATATCTCTCACTTATTTAAA”, the “cleaved RNA product abundance” value reads like this: under setting [2], 0.117; under setting [1], 0.152; under setting [3], 0.151. In the case of “CGACATGTCCCGCTTCTTTCATTAATCAGTTAGCAACTGTTTAGCTATATACATTTACCTTTTAAGAGGAGGAAT”, under setting [4], the “cleaved RNA product abundance” value turned out to be 0.775. As to “ACAGACGAAGGAGCCGCAAGAAGTTATTAAGGGATTAATAATCCCTCAATATAAATATCTCTCACTTATTTAAAG”, under setting [1], the “cleaved RNA product abundance” value stood at 0.71.

Take “CGACATGTCCCGCTTCTTTCATTAATCCGTGAGCAGCTGTTTTGCTATATACATTTACCTTTTAAGAGGAGGAAT”: the “cleaved RNA product abundance” value under setting [4] came to 0.231. As to “ACAGACGAAGGAGCCGCAAAAAAGTTATTAACGGATGAATAATCCTTCAATATAAATATCTCTCACTTATTTAAA”, the “cleaved RNA product abundance” value under setting [1] is 0.191. With “ACAGACGAAGGAGCCGCAAAGAATTTATTAAGCGATGAATAATCCCTCAATATAAATATCTCTCACTTATTTAAA”, the “cleaved RNA product abundance” value under setting [2] was 0.116 and the “cleaved RNA product abundance” value under setting [1] worked out at 0.122. On to “CGACATGTCCCGCTTCTTTCATTAATCTGTTATCAACTGTTTTGCTATATACATTTACCTTTTAAGAGGAGGAAT”, for which, under setting [4], the “cleaved RNA product abundance” value turned out to be 0.403. Same read-out and setting: in the case of “CGACATGTCCCGCTTCTTTCATTAATCCGTAAGCAACTGTTTTGCTATATACATTTATCTTTTAAGAGGAGGAAT” it was 0.536. As for “ACAGACGAAGGAGCCGCAATGAAGTTATTAAGGGTTGAATAATCCCTCAATATAAATATCTCTCACTTATTTAAA”, the “cleaved RNA product abundance” value under setting [2] turned out to be 0.325. As for “CGACATGTCCCGCTTCTTTCATTATTCCGTTAGCAACTGTATTGCTATATACATTTACCTTTTAAGAGGAGGAAT”, the “cleaved RNA product abundance” value under setting [4] was 1.36.

Take “ACAGACGAAGGAGCCGCAAAGAAGTTATAAAGGGATGAATAATCCCTGAATATAAATATCTCTCACTTATTTAAA”: the “cleaved RNA product abundance” value under setting [1] was 0.634.

Consider “CGACATGTCCCGCTTCTTTCATTAATACTTTAGCAACTGTTTTGCTATATACATTTACCTTTTAAGAGGAGGAAT”, for which the “cleaved RNA product abundance” value under setting [4] was found to be 0.611.

“ACAGACGAAGGAGCCGCAAAGAAGTAATTAAGGGATGAATAATCTCTCAATATAAATATCTCTCACTTATTTAAA”: the “cleaved RNA product abundance” value was determined as 0.213 under setting [2] and 0.244 under setting [1].

For the sequence “CGACATGTCCCGCTTCTTTCATTAATCCGTTAGCAATTGTTTTGCTATATACCTTTACCTTTTAAGAGGAGGAAT”, the “cleaved RNA product abundance” value under setting [4] worked out at 0.3. As to “ACAGACGAAGGAGCCGCAAAGAAGTTATTTAGGGATGAATAATCCTTCAATATAAATATCTCTCACTTATTTAAA”, under setting [1], the “cleaved RNA product abundance” value came to 0.531. Regarding “CGACATGTCCCGCTTCTTTCATTAATCCGTTAGCAACTGTTTTACTATATATATTTACCTTTTAAGAGGAGGAAT”, under setting [4], the “cleaved RNA product abundance” value was determined as 0.708.

Consider “ACAGACGAAGGAGCCGCAAAGAAGTTATTAAAGGATGAATAATCCCCCAATATAAATATCTCTCACTTATTTAAA”, for which the “cleaved RNA product abundance” value under setting [2] was 0.152 and the “cleaved RNA product abundance” value under setting [1] turned out to be 0.156. “CGACATGTCCCGCTTCTTTCATTAATCCGTTACCATCTGTTTTGCTATATACATTTACCTTTTAAGAGGAGGAAT”: under setting [4], the “cleaved RNA product abundance” value came out at 0.163. Take “CGACATGTCCCGCTTCTTTCATTAATCCGTTTGCATCTGTTTTGCTATATACATTTACCTTTTAAGAGGAGGAAT”: the “cleaved RNA product abundance” value under setting [4] came to 0.274. “ACAGACGAAGGAGCCGCAAAGAAGTTATTAAGGGATGAATAATCCCTCAACATAAACATCTCTCACTTATTTAAA”: the “cleaved RNA product abundance” value under setting [1] is 0.215. The same measure, in the same setting: with “ACAGACGAAGGAGCCGCAAAGAAGTTATTAAGGGATGAATAATACCTCAATATAAACATCTCTCACTTATTTAAA” the figure was 0.108. Take “CGACATGTCCCGCTTCTTTCATTAATCCGTTAGCAATTGTGTTGCTATATACATTTACCTTTTAAGAGGAGGAAT”: the “cleaved RNA product abundance” value under setting [4] stood at 0.947. Still for that read-out and setting: with “CGACATGTCCCGCTTCTTTCATTAATCTGTTATCAATTGTTTTGCTATATACATTTACCTTTTAAGAGGAGGAAT” the figure was 0.383. Regarding “ACAGACGAAGGAGCCGCAAAGAAATTATTAAGGGATGAATAATCCTTCAATATAAATATCTCTCACTTATTTAAA”, under setting [1], the “cleaved RNA product abundance” value worked out at 0.674. Regarding “ACAGACGAAGGAGCCGCAAAGAAGTTATTAAGGGATGAATAATCCAACAATATAAATATCTCTCACTTATTTAAA”, the “cleaved RNA product abundance” value by setting is: under setting [2], 0.184; under setting [1], 0.174.

On to “CGACATGTCCCGCTTCTTTCATTAATCCGTAAGCAACTTTTTTGCTATATACATTTACCTTTTAAGAGGAGGAAT”, for which, under setting [4], the “cleaved RNA product abundance” value is 0.82. In the case of “ACAGACGAAGGAGCCGCAAAGAAATTATTAAGGGATGAATAATCCCTGAATATAAATATCTCTCACTTATTTAAA”, the “cleaved RNA product abundance” value under setting [2] worked out at 0.49 and the “cleaved RNA product abundance” value under setting [1] amounted to 0.548. With “ACAGACGAAGGAGCCGCAAAGAAGTTATTAAGGGATGAATAATCCCTCAATATATAAATCTCTCACTTATTTAAA”, the “cleaved RNA product abundance” value under setting [1] came out at 1.13. In the case of “ACAGACGAAGGAGCCGCAAAGAAGTTATTATGGGATGAATAATCCCTCAATATAATTATCTCTCACTTATTTAAA”, the “cleaved RNA product abundance” value under setting [1] worked out at 0.294. Take “ACAGACGAAGGAGCCGCAAAGAAGTTATTAAGGGATGTATAATCCCTCAAAATAAATATCTCTCACTTATTTAAA”: the “cleaved RNA product abundance” value by setting is: under setting [2], 0.267; under setting [1], 0.344.

For “ACAGACGAAGGAGCCGCAATGAAGTTATTAAGGGATGAATAATCCCTCAATATAAAAATCTCTCACTTATTTAAA”, the “cleaved RNA product abundance” value runs as follows: under setting [2], 0.872; under setting [1], 1.03. Consider “CGACATGTCCCGCTTCTTTCATTAATCGATTAGCAACTGTTTTGCTATATACATTTACCTTTTAAGAGGAGGAAT”, for which the “cleaved RNA product abundance” value under setting [4] was determined as 0.79. Take “CGACATGTCCCGCTTCTTTCATTAATCCGTTAGCAACTGTTTGCTATATACATTTACCTTTTAAGAGGAGGAATT”: the “cleaved RNA product abundance” value under setting [4] was 1.42. On to “CGACATGTCCCGCTTCTTTCATTAATCCGTTATCAACTTTTTTGCTATATACATTTACCTTTTAAGAGGAGGAAT”, for which, under setting [4], the “cleaved RNA product abundance” value was 0.387.

“CGACATGTCCCGCTTCTTTCATTAATCCGTTAGAAAATGTTTTGCTATAAACATTTACCTTTTAAGAGGAGGAAT”: under setting [4], the “cleaved RNA product abundance” value came to 0.166. “ACAGACGAAGGAGCCGCAAAGAAGTTATTAAGGGATGAATAATCCATCAATATAAGTATCTCTCACTTATTTAAA”: the “cleaved RNA product abundance” value under setting [1] was 0.0774. On to “ACAGACGAAGGAGCCGCAAAGAAGTTATTAAGGGACGAATAATCCCGCAATATAAATATCTCTCACTTATTTAAA”, for which the “cleaved RNA product abundance” value under setting [1] is 0.132.

In the case of “ACAGACGAAGGAGCCGCAAAGAAGTTATTAAGGGATGAATAATCCCTCTATATAAATATCTCTCACTTATTTAAA”, the “cleaved RNA product abundance” value runs as follows: under setting [2], 0.42; under setting [1], 0.489; under setting [3], 0.642. With “ACAGACGAAGGAGCCGCAAAGAAGTTATAAAGGGATCAATAATCCCTCAATATAAATATCTCTCACTTATTTAAA”, the “cleaved RNA product abundance” value runs as follows: under setting [2], 0.26; under setting [1], 0.434.

Take “ACAGACGAAGGAGCCGCAAAGAAGTTATTAAGGGATGAATAATCCCTAAATATAAATAACTCTCACTTATTTAAA”: the “cleaved RNA product abundance” value under setting [1] turned out to be 0.442. For “CGACATGTCCCGCTTCTTTCATTAATCCGTTAGCAACTGTTTAGCTAAATACATTTACCTTTTAAGAGGAGGAAT”, the “cleaved RNA product abundance” value under setting [4] was determined as 0.212.

Take “ACAGACGAAGGAGCCGCAAAGAAGTTATTAAGGGATGAATAATCCCTTATTATAAATATCTCTCACTTATTTAAA”: under setting [1], the “cleaved RNA product abundance” value is 0.813. As to “CGACATGTCCCGCTTCTTTCATTAATCCGTTAGCAACTGTTTTGATATATACATTTTCCTTTTAAGAGGAGGAAT”, the “cleaved RNA product abundance” value under setting [4] is 0.376. With “ACAGACGAAGGAGCCGCAAAGAAGTTATTACGGTATGAATAATCCCTCAATATAAATATCTCTCACTTATTTAAA”, the “cleaved RNA product abundance” value under setting [1] was found to be 0.141.

On to “CGACATGTCCCGCTTCTTTCATTAATCCGTTAGCAAATGTTTGGCTATATACATTTACCTTTTAAGAGGAGGAAT”, for which the “cleaved RNA product abundance” value under setting [4] amounted to 0.43. “ACAGACGAAGGAGCCGCAAAGAATTTATTAAGGCATGAATAATCCCTCAATATAAATATCTCTCACTTATTTAAA”: the “cleaved RNA product abundance” value under setting [2] was found to be 0.1 and the “cleaved RNA product abundance” value under setting [1] was 0.111.

“ACAGACGAAGGAGCCGCAAAGAAGTTATTAAGAGCTGAATAATCCCTCAATATAAATATCTCTCACTTATTTAAA”: the “cleaved RNA product abundance” value under setting [2] worked out at 0.0922.
